The values below come from US10087225B2, “Formulation of MK2 inhibitor peptides” (MOERAE MATRIX, INC., priority 2015, dated 2018).

Experiment in all cases: Kinase Profiling Assay
Common to all, as to type: biochemical

For one assay, the target named is FGFR2(N549H)(h) (Homo sapiens, UniProt P21802, N549H).
Another assay has as its target T1, DDR2(h) (Homo sapiens, UniProt Q16832).
T1 sequence (Q16832 22-855): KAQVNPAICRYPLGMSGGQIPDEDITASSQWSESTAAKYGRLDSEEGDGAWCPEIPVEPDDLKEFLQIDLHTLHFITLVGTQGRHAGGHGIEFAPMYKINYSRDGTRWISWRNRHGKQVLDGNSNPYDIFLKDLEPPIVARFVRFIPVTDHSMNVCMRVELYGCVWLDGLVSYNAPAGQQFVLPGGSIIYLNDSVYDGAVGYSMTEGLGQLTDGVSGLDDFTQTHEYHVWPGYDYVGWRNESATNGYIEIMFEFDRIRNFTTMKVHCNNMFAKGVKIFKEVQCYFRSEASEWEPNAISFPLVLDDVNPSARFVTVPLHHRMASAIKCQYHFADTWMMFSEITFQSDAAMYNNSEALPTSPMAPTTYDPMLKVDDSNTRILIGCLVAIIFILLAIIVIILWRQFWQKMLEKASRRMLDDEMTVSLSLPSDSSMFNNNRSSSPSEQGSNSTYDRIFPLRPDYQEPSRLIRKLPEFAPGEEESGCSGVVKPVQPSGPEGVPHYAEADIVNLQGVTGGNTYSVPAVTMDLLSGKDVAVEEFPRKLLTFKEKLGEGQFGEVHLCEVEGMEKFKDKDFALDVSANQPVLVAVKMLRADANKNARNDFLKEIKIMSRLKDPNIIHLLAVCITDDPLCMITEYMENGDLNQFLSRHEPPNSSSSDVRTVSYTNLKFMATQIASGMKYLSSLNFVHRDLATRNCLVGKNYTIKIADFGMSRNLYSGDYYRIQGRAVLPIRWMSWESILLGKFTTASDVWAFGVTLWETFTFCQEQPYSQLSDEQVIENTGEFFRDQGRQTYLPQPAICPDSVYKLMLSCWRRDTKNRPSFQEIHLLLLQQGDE
The conditions noted are these: 100 μM.

Another assay deals with T2, IKKβ(h) (Homo sapiens, UniProt O14920).
T2 sequence (O14920 1-756): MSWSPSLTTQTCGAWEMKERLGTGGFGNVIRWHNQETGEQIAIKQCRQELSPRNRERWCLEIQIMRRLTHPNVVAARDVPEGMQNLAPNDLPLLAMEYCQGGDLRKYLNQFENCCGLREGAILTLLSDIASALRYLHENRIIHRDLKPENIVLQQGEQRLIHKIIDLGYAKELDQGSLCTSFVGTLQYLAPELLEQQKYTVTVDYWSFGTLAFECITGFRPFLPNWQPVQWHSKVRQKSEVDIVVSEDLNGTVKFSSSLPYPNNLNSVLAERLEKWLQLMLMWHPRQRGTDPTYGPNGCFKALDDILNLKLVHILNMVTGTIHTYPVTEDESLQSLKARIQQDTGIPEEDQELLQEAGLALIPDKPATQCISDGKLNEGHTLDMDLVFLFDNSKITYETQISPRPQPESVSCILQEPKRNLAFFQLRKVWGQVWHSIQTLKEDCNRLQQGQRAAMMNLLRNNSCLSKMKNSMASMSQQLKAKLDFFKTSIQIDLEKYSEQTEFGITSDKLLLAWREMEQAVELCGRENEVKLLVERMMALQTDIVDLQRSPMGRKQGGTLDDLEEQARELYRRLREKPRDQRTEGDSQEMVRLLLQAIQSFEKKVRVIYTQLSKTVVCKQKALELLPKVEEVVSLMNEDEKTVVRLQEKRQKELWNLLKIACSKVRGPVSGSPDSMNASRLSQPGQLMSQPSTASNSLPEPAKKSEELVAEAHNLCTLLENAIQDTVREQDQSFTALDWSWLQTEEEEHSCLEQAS
The conditions noted are these: 100 μM.

Another assay has as its target VRK2(h) (Homo sapiens, UniProt Q86Y07). The conditions noted are these: 100 μM.
The target of a further assay is Hck(h) (Homo sapiens, UniProt P08631). The conditions noted are these: 100 μM.
The target in the next assay is Rsk3(h) (Homo sapiens, UniProt Q15349). The following applies: 100 μM.
The next assay has as its target SAPK2a(h) (Homo sapiens, UniProt Q16539). The conditions noted are these: 100 μM.
Another assay deals with CDK3/cyclinE(h) (Homo sapiens, UniProt Q00526). The following applies: 100 μM.
The next assay deals with ROCK-I(h) (Homo sapiens, UniProt Q13464). The following applies: 100 μM.
Another assay deals with GSK3α(h) (Homo sapiens, UniProt P49840). The following applies: 100 μM.
A further assay deals with HIPK3(h) (Homo sapiens, UniProt Q9H422). The conditions noted are these: 100 μM.
For a further assay, the target named is Fgr(h) (Homo sapiens, UniProt P09769). The conditions noted are these: 100 μM.
The next assay deals with EphA2(h) (Homo sapiens, UniProt P29317). The conditions noted are these: 100 μM.
The target in another assay is CK1γ1(h) (Homo sapiens, UniProt Q9HCP0). The conditions noted are these: 100 μM.
In a further assay the target is IGF-1R(h) (Homo sapiens, UniProt P08069). The following applies: 100 μM.

ROCK-I(h), sequence (Q13464 whole entry): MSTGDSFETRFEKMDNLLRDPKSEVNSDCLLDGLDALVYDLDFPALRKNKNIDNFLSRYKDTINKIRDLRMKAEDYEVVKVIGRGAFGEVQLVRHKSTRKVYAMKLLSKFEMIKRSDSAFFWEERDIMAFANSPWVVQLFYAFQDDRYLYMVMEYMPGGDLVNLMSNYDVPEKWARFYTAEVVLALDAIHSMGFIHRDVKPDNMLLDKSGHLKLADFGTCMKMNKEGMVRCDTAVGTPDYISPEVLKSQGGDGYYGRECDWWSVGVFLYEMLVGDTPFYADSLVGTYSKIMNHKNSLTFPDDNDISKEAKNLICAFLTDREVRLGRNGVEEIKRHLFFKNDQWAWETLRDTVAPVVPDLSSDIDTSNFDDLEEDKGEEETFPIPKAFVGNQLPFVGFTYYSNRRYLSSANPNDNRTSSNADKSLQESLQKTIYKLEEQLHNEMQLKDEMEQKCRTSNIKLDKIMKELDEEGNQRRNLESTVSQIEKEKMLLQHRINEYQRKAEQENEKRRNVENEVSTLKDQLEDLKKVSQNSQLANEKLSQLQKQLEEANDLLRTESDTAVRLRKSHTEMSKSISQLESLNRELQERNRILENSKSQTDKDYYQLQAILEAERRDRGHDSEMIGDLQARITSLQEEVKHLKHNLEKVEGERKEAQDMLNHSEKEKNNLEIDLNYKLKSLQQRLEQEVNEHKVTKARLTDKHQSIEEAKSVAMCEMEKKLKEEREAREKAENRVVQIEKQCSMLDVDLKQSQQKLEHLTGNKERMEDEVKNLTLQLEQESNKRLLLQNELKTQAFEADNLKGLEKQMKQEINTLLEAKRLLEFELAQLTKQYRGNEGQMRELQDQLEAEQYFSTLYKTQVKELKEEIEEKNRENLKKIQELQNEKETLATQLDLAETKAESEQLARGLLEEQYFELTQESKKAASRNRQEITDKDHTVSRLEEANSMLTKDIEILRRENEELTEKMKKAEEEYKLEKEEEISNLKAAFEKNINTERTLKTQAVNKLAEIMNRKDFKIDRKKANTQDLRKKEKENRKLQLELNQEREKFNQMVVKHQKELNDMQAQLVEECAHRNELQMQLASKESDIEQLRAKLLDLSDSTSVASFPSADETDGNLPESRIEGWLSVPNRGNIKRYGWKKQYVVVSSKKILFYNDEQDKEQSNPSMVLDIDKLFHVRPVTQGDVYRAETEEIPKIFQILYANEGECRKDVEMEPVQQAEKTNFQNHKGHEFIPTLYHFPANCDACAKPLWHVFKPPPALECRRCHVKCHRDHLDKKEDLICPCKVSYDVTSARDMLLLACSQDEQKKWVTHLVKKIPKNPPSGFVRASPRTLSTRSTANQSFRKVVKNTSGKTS
VRK2(h), sequence (Q86Y07 whole entry): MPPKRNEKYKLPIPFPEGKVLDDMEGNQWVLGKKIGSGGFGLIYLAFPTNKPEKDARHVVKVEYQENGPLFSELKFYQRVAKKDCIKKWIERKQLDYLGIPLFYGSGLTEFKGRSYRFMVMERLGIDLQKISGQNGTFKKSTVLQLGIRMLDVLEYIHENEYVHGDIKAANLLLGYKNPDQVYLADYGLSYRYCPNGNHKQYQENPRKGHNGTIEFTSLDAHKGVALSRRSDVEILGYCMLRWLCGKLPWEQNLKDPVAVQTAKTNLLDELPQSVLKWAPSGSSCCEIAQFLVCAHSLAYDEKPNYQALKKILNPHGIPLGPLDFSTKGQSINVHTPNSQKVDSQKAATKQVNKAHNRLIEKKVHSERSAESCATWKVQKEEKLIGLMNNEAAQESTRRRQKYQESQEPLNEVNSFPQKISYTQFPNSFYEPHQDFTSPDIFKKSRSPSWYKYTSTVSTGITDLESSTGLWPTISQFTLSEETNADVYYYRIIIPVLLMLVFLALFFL
CDK3/cyclinE(h), sequence (Q00526 whole entry): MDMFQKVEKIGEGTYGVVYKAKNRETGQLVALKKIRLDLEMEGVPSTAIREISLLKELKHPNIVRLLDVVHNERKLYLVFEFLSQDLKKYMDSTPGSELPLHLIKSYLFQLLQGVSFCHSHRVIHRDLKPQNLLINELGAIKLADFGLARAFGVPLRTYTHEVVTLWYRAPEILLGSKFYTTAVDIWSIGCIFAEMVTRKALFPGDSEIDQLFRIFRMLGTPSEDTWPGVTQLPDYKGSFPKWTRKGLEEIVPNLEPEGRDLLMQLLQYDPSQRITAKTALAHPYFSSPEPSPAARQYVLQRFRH
CDK3/cyclinE(h), sequence (P24864 whole entry partner): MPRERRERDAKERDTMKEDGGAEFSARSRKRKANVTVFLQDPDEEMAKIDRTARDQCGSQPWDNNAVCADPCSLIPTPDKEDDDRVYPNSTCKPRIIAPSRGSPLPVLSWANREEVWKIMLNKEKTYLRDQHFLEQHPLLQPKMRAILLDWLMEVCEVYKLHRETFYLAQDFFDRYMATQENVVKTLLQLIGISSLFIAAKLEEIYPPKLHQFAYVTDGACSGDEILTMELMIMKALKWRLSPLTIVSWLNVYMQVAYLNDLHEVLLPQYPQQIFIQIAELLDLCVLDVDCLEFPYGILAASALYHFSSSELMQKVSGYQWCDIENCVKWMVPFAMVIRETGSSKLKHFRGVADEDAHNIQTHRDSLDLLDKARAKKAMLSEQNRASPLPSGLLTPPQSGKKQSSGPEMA
HIPK3(h), sequence (Q9H422 whole entry): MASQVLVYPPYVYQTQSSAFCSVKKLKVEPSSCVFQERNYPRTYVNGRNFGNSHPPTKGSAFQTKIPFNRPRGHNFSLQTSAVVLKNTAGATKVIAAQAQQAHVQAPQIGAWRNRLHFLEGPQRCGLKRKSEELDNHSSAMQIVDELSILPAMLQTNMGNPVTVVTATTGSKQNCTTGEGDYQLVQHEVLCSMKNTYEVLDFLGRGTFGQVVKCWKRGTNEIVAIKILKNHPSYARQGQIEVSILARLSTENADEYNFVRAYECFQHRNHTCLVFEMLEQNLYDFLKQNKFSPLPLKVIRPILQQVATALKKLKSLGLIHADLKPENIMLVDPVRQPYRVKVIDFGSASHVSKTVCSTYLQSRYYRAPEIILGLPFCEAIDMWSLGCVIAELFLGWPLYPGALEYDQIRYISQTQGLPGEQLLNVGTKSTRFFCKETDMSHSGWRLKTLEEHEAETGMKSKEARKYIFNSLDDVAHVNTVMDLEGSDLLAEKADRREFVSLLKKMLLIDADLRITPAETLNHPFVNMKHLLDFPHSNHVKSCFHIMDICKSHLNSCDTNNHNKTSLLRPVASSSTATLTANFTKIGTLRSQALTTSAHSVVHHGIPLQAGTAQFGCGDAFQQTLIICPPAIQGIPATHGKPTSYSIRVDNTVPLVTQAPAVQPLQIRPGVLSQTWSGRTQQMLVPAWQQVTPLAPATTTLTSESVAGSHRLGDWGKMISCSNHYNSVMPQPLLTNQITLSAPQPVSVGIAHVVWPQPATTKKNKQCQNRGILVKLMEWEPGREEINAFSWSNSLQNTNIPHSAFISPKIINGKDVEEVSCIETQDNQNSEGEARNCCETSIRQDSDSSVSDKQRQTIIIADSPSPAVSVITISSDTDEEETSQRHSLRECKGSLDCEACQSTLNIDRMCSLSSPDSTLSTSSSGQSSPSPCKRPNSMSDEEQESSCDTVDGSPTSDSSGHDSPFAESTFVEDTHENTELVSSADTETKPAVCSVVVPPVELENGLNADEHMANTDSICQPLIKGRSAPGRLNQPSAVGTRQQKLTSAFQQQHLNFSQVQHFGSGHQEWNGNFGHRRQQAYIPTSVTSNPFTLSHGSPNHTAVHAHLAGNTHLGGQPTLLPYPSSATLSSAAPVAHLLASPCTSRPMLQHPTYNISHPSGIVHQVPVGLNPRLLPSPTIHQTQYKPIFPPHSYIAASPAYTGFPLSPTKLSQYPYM
Hck(h), sequence (P08631 whole entry): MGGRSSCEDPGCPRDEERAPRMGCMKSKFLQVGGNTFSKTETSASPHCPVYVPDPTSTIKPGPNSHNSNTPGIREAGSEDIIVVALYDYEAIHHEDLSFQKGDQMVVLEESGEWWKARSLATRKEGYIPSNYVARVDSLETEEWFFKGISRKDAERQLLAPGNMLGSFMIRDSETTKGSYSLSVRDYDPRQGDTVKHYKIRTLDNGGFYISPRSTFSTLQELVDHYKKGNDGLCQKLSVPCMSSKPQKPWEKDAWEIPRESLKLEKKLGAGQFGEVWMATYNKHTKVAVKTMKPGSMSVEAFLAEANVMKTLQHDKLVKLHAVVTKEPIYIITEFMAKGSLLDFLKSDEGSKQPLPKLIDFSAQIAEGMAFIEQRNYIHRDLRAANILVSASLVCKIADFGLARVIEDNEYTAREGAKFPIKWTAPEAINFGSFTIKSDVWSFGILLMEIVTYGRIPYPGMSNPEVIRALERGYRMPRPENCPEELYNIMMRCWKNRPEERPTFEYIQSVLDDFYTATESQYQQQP
GSK3α(h), sequence (P49840 whole entry): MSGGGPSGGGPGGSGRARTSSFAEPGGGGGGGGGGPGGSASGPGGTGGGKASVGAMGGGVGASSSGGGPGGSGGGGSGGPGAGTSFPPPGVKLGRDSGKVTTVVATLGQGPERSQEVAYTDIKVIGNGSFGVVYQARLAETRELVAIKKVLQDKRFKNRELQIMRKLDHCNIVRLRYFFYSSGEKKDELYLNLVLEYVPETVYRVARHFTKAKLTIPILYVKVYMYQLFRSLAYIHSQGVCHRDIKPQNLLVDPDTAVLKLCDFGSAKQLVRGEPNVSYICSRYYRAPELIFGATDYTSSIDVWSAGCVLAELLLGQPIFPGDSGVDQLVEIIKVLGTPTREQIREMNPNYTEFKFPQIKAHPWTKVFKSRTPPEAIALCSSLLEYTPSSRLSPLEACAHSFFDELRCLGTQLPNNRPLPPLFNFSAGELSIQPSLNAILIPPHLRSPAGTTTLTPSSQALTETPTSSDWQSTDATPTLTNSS

Regarding H-YARAAARQARAKALARQLGVAA-OH [MMI-0100], the activity at 100 µM at FGFR2(N549H)(h) is 95%.
Regarding “HRRIKAWLKKIKALARQLGVAA (Mammalian) [MMI-0500]”, the “% activity” value turned out to be 79% with DDR2(h); 71% with IKKβ(h); 169% in the assay with VRK2(h); 78% in the assay with Hck(h); 23% in the assay with Rsk3(h); 52% with SAPK2a(h). In addition, the “% activity” value in the assay with CDK3/cyclinE(h) came out at 8%; in the assay with ROCK-I(h), 17%; in the assay with GSK3α(h) it was 175%; in the assay with HIPK3(h) it was 85%.
On to “YARAAARQARAKALNRQLGVA (Mammalian) [MMI-0200]”, for which the “% activity” value with Fgr(h) was 71%; with EphA2(h), 95%; in the assay with CK1γ1(h), 98%; with IGF-1R(h), 49%.
